Experimental data taken from US20260242478A1 (published 2026).

Key:
PSMA Fab (006 PSMA Fab) [1] = target: T1, PSMA Fab (006 PSMA Fab) (biotinylated (site not stated)); assay: clonal phage ELISA on captured PSMA Fab, wells pre-incubated with PSMA antigen as competitor
T1 construct: also called Anti-PSMA Fab

PSMA Fab (006 PSMA Fab) [2] = target: T1, PSMA Fab (006 PSMA Fab); assay: clonal phage ELISA on biotinylated PSMA Fab captured on neutravidin plates, anti-M13 HRP detection;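 further: crude clonal phage supernatants tested, before phage were added, wells were pretreated with PSMA antigen in blocking buffer or with blocking buffer only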
Experimental: (§1) Clonal phage were harvested as crude supernatants and screened via standard ELISAs. […] Prior to the addition of clonal phage. wells were incubated with blocking buffer and PSMA antigen or blocking buffer alone. Without washing or aspirating, clonal phage supernatants were then added to the wells and incubated for a short time. Wells were then washed followed by detection of bound phage using a horse radish conjugated anti-M13 antibody.

PSMA Fab (006 PSMA Fab) [3] = target: T2, PSMA Fab (006 PSMA Fab); assay: as above
T2 construct: also called Anti-PSMA Fab
Experimental: as §1

PSMA Fab (006 PSMA Fab) [4] = target: T2, PSMA Fab (006 PSMA Fab); assay: clonal phage ELISA on captured PSMA Fab pre-incubated with PSMA antigen as competitor;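 further: crude clonal phage supernatants added to wells without washing away the PSMA competitor, bound phage detected by HRP-conjugated anti-M13 antibody, reference wells received blocking buffer only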
Experimental: as §1

PSMA Fab (006 PSMA Fab) [5] = target: T3, PSMA Fab (006 PSMA Fab); assay: clonal phage ELISA on captured PSMA Fab, wells pre-incubated with PSMA antigen as competitor
T3 construct: also called Anti-PSMA Fab; anti-PSMA Fab
Experimental: as §1

PSMA Fab (006 PSMA Fab) [6] = target: T3, PSMA Fab (006 PSMA Fab); assay: clonal phage ELISA on biotinylated PSMA Fab captured on neutravidin, blocking buffer alone, anti-M13 HRP detection;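 further: clonal phage were tested as crude supernatants, and the signal reflects phage still bound to the wells after washing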
Experimental: as §1

[7] = target: T4, PSMA Fab (SEQ ID NOs: 19, 20) (biotinylated (site not stated)); assay: clonal phage ELISA on captured biotinylated PSMA Fab, anti-M13-HRP detection, no PSMA antigen
T4 construct: In the phage ELISA the biotinylated PSMA Fab was captured on neutravidin coated plates; also called Anti-PSMA Fab; 006 PSMA Fab

[8] = target: T4, PSMA Fab (SEQ ID NOs: 19, 20); assay: clonal phage ELISA on captured biotinylated PSMA Fab, anti-M13-HRP detection, competitor: PSMA antigen pre-incubated
Experimental: as §1

Binder	Phage binding ELISA signal, Anti-PSMA Fab in presence of PSMA (PSMA Fab (006 PSMA Fab) [1])	Phage binding ELISA signal, Anti-PSMA Fab (PSMA Fab (006 PSMA Fab) [2])	phage binding ELISA signal on anti-PSMA Fab in presence of PSMA (PSMA Fab (006 PSMA Fab) [5])	phage binding ELISA signal on anti-PSMA Fab (PSMA Fab (006 PSMA Fab) [6])	further results
VAIACTPMWMCTGF [Phage-3661 (peptide-180 library clone)]	0.113	1.49			
ESRFCVPAWMCAAV [Phage-3665 (peptide-180 library clone)]	0.089	1.49			
GTMKCEPAWMCEGF [Phage-3674]					Phage binding ELISA signal, Anti-PSMA Fab (PSMA Fab (006 PSMA Fab) [3]): 1.48; Phage binding ELISA signal, Anti-PSMA Fab with PSMA antigen (PSMA Fab (006 PSMA Fab) [4]): 0.106
PELRCHPPWMCTGF [Phage-3670 (peptide-180 library clone)]	0.0997	1.49			
LQTLCIPPWMCMGF [Phage-3649 (Peptide-180 library clone)]			0.0685	1.5	
LQVLCVPDWMCAGF [Phage-3668 (peptide-180 library clone)]	0.091	1.49			
PLVLCIPQWMCQAM [Phage-3648 (Peptide-180 library clone)]			0.0663	1.51	
VIPKCEPKWMCHSL [Phage-3678]					Phage binding ELISA signal, Anti-PSMA Fab (PSMA Fab (006 PSMA Fab) [3]): 1.48; Phage binding ELISA signal, Anti-PSMA Fab with PSMA antigen (PSMA Fab (006 PSMA Fab) [4]): 0.0649
VDVRCMPLWMCSGF [Phage-3645 (Peptide-180 library clone)]			0.0628	1.52	
VERMCEPLWMCAGL [Phage-3655 (Peptide-180 library clone)]			0.0832	1.5	
VTMKCQPMWMCQGL [Phage-3642]					phage binding ELISA signal [7]: 1.52; phage binding ELISA signal [8]: 0.0738
PHVVCIPEWMCAGF [Phage-3681]					Phage binding ELISA signal, Anti-PSMA Fab (PSMA Fab (006 PSMA Fab) [3]): 1.47; Phage binding ELISA signal, Anti-PSMA Fab with PSMA antigen (PSMA Fab (006 PSMA Fab) [4]): 0.068
LGKICSPAWMCSGF [Phage-3673]					Phage binding ELISA signal, Anti-PSMA Fab (PSMA Fab (006 PSMA Fab) [3]): 1.48; Phage binding ELISA signal, Anti-PSMA Fab with PSMA antigen (PSMA Fab (006 PSMA Fab) [4]): 0.0608
ISIKCEPQWMCDGL [Phage-3671 (peptide-180 library clone)]	0.307	1.48			
VQILCRPQWMCEGL [Phage-3653 (Peptide-180 library clone)]			0.0669	1.5	
SVVMCVPEWMCQGF [Phage-3651 (Peptide-180 library clone)]			0.0734	1.5	
ADRVCKPAWMCDLF [Phage-3643]					phage binding ELISA signal [7]: 1.52; phage binding ELISA signal [8]: 0.0527
AAKYCEPSWMCYGF [Phage-3672 (peptide-180 library clone)]	0.105	1.48			
PEARCIPMWMCERL [Phage-3676]					Phage binding ELISA signal, Anti-PSMA Fab (PSMA Fab (006 PSMA Fab) [3]): 1.48; Phage binding ELISA signal, Anti-PSMA Fab with PSMA antigen (PSMA Fab (006 PSMA Fab) [4]): 0.0885
LVKHCVPDWMCSGF [Phage-3677]					Phage binding ELISA signal, Anti-PSMA Fab (PSMA Fab (006 PSMA Fab) [3]): 1.48; Phage binding ELISA signal, Anti-PSMA Fab with PSMA antigen (PSMA Fab (006 PSMA Fab) [4]): 0.101

Binder	Phage binding ELISA signal, Anti-PSMA Fab in presence of PSMA (PSMA Fab (006 PSMA Fab) [1])	Phage binding ELISA signal, Anti-PSMA Fab (PSMA Fab (006 PSMA Fab) [2])	phage binding ELISA signal on anti-PSMA Fab in presence of PSMA (PSMA Fab (006 PSMA Fab) [5])	phage binding ELISA signal on anti-PSMA Fab (PSMA Fab (006 PSMA Fab) [6])	further results
PNILCKPQWMCAGF [Phage-3644]					phage binding ELISA signal [7]: 1.52; phage binding ELISA signal [8]: 0.0825
SMIYCIPSWMCEGM [Phage-3657 (Peptide-180 library clone)]			0.0844	1.5	
MVSHCVPLWMCAGF [Phage-3660 (peptide-180 library clone)]	0.0616	1.49			
DHKLCKPEWMCAGL [Phage-3659 (peptide-180 library clone)]	0.0672	1.5			
MVPVCIPLWMCSGF [Phage-3647 (Peptide-180 library clone)]			0.0744	1.51	
EVRRCEPSWMCSVV [Phage-3666 (peptide-180 library clone)]	0.0749	1.49			
HVAACVPSWMCTGF [Phage-3662 (peptide-180 library clone)]	0.0842	1.49			
PSAVCVPTWMCSGF [Phage-3652 (Peptide-180 library clone)]			0.0815	1.5	
ETSWCTPSWMCTGF [Phage-3656 (Peptide-180 library clone)]			0.0752	1.5	
TAVMCIPYWMCGGM [Phage-3646 (Peptide-180 library clone)]			0.104	1.52	
MIKMCKPYWMCEAM [Phage-3679]					Phage binding ELISA signal, Anti-PSMA Fab (PSMA Fab (006 PSMA Fab) [3]): 1.48; Phage binding ELISA signal, Anti-PSMA Fab with PSMA antigen (PSMA Fab (006 PSMA Fab) [4]): 0.0794
EGPLCKPAWMCRGF [Phage-3663 (peptide-180 library clone)]	0.0963	1.49			
LALACVPPWMCQGL [Phage-3654 (Peptide-180 library clone)]			0.0897	1.5	
EQVLCRPAWMCLGF [Phage-3650 (Peptide-180 library clone)]			0.0974	1.5	
GHVYCEPQWMCYGF [Phage-3669 (peptide-180 library clone)]	0.0791	1.49			
IDRHCTPSWMCYGF [Phage-3658 (Peptide-180 library clone)]			0.0562	1.5	
YIQACKPRWMCNGF [Phage-3667 (peptide-180 library clone)]	0.0874	1.49			
PVPYCRPIWMCQGL [Phage-3664 (peptide-180 library clone)]	0.0736	1.49			
DAMMCKPTWMCDGF [Phage-3675]					Phage binding ELISA signal, Anti-PSMA Fab (PSMA Fab (006 PSMA Fab) [3]): 1.48; Phage binding ELISA signal, Anti-PSMA Fab with PSMA antigen (PSMA Fab (006 PSMA Fab) [4]): 0.0662
YTVQCVPTWMCAGL [Phage-3680]					Phage binding ELISA signal, Anti-PSMA Fab (PSMA Fab (006 PSMA Fab) [3]): 1.47; Phage binding ELISA signal, Anti-PSMA Fab with PSMA antigen (PSMA Fab (006 PSMA Fab) [4]): 0.0609
